Results on two compounds are retold here after PMC7785020, “A unique hormonal recognition feature of the human glucagon-like peptide-2 receptor” (Cell Research, 2020).

In one data set the target is GLP-2R ECL1 (GLP-1R) (UniProt O95838). Put plainly: radioligand binding; competition on transiently transfected COS-7 cells: unlabeled GLP-2(1–33) 0.1 nM to 1 μM against 10–15 pM [125I]GLP-2(1–33, M10Y); 4 h, 4 °C; 50 mM HEPES pH 7.4, 1 mM CaCl2, 5 mM MgCl2, 0.5% BSA; three-parameter logistic fit.
In data set [1] the target is GLP-2R H268^3.37A (human) (UniProt O95838). The data set is described as above.
For data set [2], the target named is GLP-2R N334^ECL2 A (human) (UniProt O95838). Described as above.
Data set [3] has as its target GLP-2R R242^ECL1A (human) (UniProt O95838). The data set is described as above.
Data set [4] addresses GLP-2R Y252^ECL1A (human) (UniProt O95838). The data set is described as above.
The target of data set [5] is Human GLP-2R WT (1–553) (human) (UniProt O95838). Described as above.
The next data set concerns dipeptidyl peptidase 4. Conditions: cited from earlier work. From the text: GLP-2R belongs to class B GPCR subfamily, which is mainly expressed in the gut, pancreas and brain.[1] […] GLP-2 is encoded by the proglucagon gene and becomes active after post-translational processing by prohormone convertases. As a gastrointestinal hormone, it mainly regulates intestinal epithelial cell growth and functions that are crucial for digestion and absorption of nutrients.[2]

Another data set concerns the target T1, GLP-2R K414^7.35A (Homo sapiens, UniProt O95838, K414A).
T1 sequence (O95838 1-553 K414A): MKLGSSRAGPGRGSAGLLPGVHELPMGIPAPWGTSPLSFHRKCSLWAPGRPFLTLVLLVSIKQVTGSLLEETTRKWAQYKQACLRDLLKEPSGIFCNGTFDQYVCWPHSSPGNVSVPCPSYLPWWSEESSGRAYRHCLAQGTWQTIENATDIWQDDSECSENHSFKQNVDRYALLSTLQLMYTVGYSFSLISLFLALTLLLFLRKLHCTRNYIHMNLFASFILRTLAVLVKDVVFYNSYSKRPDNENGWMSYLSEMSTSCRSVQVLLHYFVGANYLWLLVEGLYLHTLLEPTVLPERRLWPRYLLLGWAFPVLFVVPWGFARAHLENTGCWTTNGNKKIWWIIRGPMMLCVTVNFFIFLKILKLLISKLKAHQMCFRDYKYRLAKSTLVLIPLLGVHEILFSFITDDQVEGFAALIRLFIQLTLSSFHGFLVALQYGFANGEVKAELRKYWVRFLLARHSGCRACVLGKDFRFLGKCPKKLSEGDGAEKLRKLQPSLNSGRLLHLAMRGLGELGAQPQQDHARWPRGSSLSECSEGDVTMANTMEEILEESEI
Put plainly: cAMP accumulation, K414^7.35A. Format: cell-based. Also noted: GLP-2R (1-553) (WT); expressed in transfected cells; host or cells: HEK 293T. The note with it: Table S3, K414A; HEK 293T, 30 min, RT; mean ± SEM, n ≥ 3 in duplicate; read-out: cAMP Emax (% WT). How it is done:
HEK 293T cells were cultured in Dulbecco’s Modified Eagle’s Medium (DMEM) (Gibco, Waltham, USA) supplemented with 10% (v/v) fetal bovine serum (FBS) (Gibco) and 1% (v/v) sodium pyruvate (Gibco) at 37 °C, 5% CO2 in a humidified incubator. They were seeded onto 6-well cell culture plates and transiently transfected with different GLP-2R constructs using Lipofectamine 2000 transfection reagent (Invitrogen, Carlsbad, CA, USA). After 24 h, the transfected cells were seeded onto 384-well microtiter plates (3000 cells per well) in HBSS supplemented with 5 mM HEPES, 0.1% (w/v) bovine serum albumin (BSA) and 0.5 mM 3-isobutyl-1- methylxanthine, and stimulated with increasing concentrations of GLP-2 for 30 min at RT. Eu and Ulight were diluted by cAMP detection buffer and added to the plates separately to terminate the reaction. Plates were incubated at RT for 60 min before measuring the fluorescence intensity at 620 nm and […] by an EnVision multilabel plate reader (PerkinElmer, Boston, USA).

Sequence of GLP-2R Y252^ECL1A (human) (O95838 whole entry Y252A): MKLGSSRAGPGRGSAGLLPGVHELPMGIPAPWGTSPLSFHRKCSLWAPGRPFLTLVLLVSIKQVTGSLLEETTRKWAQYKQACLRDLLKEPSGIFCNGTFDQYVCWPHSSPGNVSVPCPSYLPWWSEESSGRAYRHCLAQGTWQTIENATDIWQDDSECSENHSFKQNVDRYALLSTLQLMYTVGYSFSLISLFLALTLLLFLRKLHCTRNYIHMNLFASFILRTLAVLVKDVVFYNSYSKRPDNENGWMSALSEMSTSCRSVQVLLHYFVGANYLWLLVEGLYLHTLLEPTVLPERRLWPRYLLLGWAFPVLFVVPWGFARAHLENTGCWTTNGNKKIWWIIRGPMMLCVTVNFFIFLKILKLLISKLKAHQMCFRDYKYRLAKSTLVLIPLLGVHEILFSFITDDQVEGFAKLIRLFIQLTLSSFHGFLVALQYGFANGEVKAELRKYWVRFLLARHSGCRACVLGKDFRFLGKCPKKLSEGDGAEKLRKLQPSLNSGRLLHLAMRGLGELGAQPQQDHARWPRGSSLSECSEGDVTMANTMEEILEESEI
Sequence of GLP-2R R242^ECL1A (human) (O95838 whole entry R242A): as the sequence (O95838 whole entry Y252A) above, with R242A, A252Y counted along it
Sequence of GLP-2R N334^ECL2 A (human) (O95838 whole entry N334A): as the sequence (O95838 whole entry Y252A) above, with A252Y, N334A counted along it
Sequence of GLP-2R ECL1 (GLP-1R) (O95838 whole entry): as the sequence (O95838 whole entry Y252A) above, with A252Y counted along it
Sequence of GLP-2R H268^3.37A (human) (O95838 whole entry H268A): as the sequence (O95838 whole entry Y252A) above, with A252Y, H268A counted along it

Turning to [^125I]GLP-2(1–33, M10Y) (peptide), the % Binding of WT turned out to be 3.4% in the data set with GLP-2R ECL1 (GLP-1R); 2.1% in data set [1]; 2.4% in data set [2]; 4.2% in data set [3]; 8.3% in data set [4]; 99.2% in data set [5].
Consider `CC[C@H](C)[C@H](NC(=O)[C@H](Cc1ccccc1)NC(=O)[C@H](CC(=O)O)NC(=O)[C@H](CCCNC(=N)N)NC(=O)[C@H](C)NC(=O)[C@H](C)NC(=O)[C@H](CC(C)C)NC(=O)[C@H](CC(N)=O)NC(=O)[C@H](CC(=O)O)NC(=O)[C@H](CC(C)C)NC(=O)[C@@H](NC(=O)[C@@H](NC(=O)[C@H](CC(N)=O)NC(=O)[C@H](CCSC)NC(=O)[C@H](CCC(=O)O)NC(=O)[C@H](CC(=O)O)NC(=O)[C@H](CO)NC(=O)[C@H](Cc1ccccc1)NC(=O)[C@H](CO)NC(=O)CNC(=O)[C@H](CC(=O)O)NC(=O)[C@H](C)NC(=O)[C@@H](N)Cc1c[nH]cn1)[C@@H](C)O)[C@@H](C)CC)C(=O)N[C@@H](CC(N)=O)C(=O)N[C@@H](Cc1c[nH]c2ccccc12)C(=O)N[C@@H](CC(C)C)C(=O)N[C@H](C(=O)N[C@@H](CCC(N)=O)C(=O)N[C@H](C(=O)N[C@@H](CCCCN)C(=O)N[C@H](C(=O)N[C@H](C(=O)N[C@@H](CC(=O)O)C(=O)O)[C@@H](C)O)[C@@H](C)CC)[C@@H](C)O)[C@@H](C)CC` [Human GLP-2 (1–33)], for which the “inactivation by dipeptidyl peptidase 4 in vivo (in words)” value in the data set with dipeptidyl peptidase 4 is given as “rapidly inactivated by dipeptidyl peptidase 4 in vivo”. Besides, the Emax at GLP-2R K414^7.35A was found to be 110 ± 3.3%.
